{"source": "the DeepSol protein solubility set"}
{"assay": "soluble on expression in E. coli; label from the status in PepcDB or PDB records"}
{"sequence": "MGSSHHHHHHSSGLVPRGSHMWIGVISLFPEMFKAITEFGVTGRAVKHNLLKVECWNPRDFTFDKHKTVDDRPYGGGPGMLMMVQPLRDAIHTAKAAAGEGAKVIYLSPQGRKLDQGGVTELAQNQKLILVCGRYEGIDERLIQTEIDEEWSIGDYVLTGGELPAMTLIDAVARFIPGVLGKQASAEEDSFADGLLDCPHYTRPEVLEGLTVPPVLMSGHHEEIRKWRLKQSLQRTWLRRPELLEGLALTDEQRKLLKEAQAEHNSLEHHHHHH", "soluble on expression in E. coli": "soluble"}
{"sequence": "MGSSHHHHHHSSGLVPRGSHMTDKLTSLRQYTTVVADTGDIAAMKLYQPQDATTNPSLILNAAQIPEYRKLIDDAVAWAKQQSNDRAQQIVDATDKLAVNIGLEILKLVPGRISTEVDARLSYDTEASIAKAKRLIKLYNDAGISNDRILIKLASTWQGIRAAEQLEKEGINCNLTLLFSFAQARACAEAGVFLISPYVGEILDWYKANTDKKEYAPAEDPGVVSVSEIYQYYKEHGYETVVMGASFRNIGEILELAGCDRLTIAPTLLKELAESEGAIERKLSYTGEVKARPARITESEFLWQHNQDPMAVDKLAEGIRKFAIDQEKLEKMIGDLL", "soluble on expression in E. coli": "soluble"}
{"sequence": "MLSTTTIGFPRIGNQRQLKFAMESYFKGDSGEAELLAVAHKVQSDAWALQKAAGIAVIGLDGTLYDQVLDTITWLGAIPPRFKHLSGLQRYYAMARGGAALDMSKFFDTNYHYLVPELGPDVLGPATAAGAPLQPDFSGPLDKLARGQAVVGRERAVPILIGPVTFVSLSRGCELPLDQAVARLLPTYCALLQQLAAAGAPEVQLHEPVLATSEGAGMRAEFETAYAQMAQAAGSVPLHLVTYYDDLGAAYPWAVQLPVAAVTLDFLGPPGAAVPSQTLALLQQHGFPADKRLGAGVVDGRSVWKDDGTAVALLRALLDTGAVSSDRLVVTSSAPLQHLPYDLGLELEAPKTPEAEPHLPPALAARLGFAKQKVEEIVSVARLAASPAAAAAAAGHGAVVQLQRLQQGKGVEDHTADIPAEWFSRPKPYDVRREQQLQLPAFPTTTIGSFPQTAEVRRLRQQLKSGRLTQAEYEGLIAGHIAHAVGVQEALGIDVLVHGEAERTDMVEYFGMQLGGMLFTRAGWVQSYGSRCVRPPLVVDDITYRGPMTCWEYKVASAYTRKPVKGMLTGPVTILNWSFPRKDISRAAQAMQLGLALRQEVAALEAAGCTIIQVDDPALREGLPLKRERWASYLSWAVDAFRLCTGVAAAGTQVVTHLCYSDFQDILPAIDRMDADVLTIENSRSDNAMMAALAAAGYGRDIGPGVYDVHSPVVPSVEFIKSRIRSFVDSGILSGRYDRIWVNPDCGLKTRGWPETIAALRNMVEAAAQARAELQLAGGAAVAPVAGGVEAAGKGAALGAAAGTSRCVDCCH", "soluble on expression in E. coli": "not soluble"}
{"sequence": "MSLTTELVDWTHEQKCRKAVASLEKNGFTAVYCGTGQEALEYIVAEAAEAESVGFGGSMSVDDLKVIERIREMGKELLIHGAPGLSLEERVTIMRRQLTCDLFLAGTNALTLSGWLVNIDATGNRVGSMFFGPRKVIVVAGRNKIVDGGVQEAIDRIKEWASPPNARRLNYKTPCGTTGFCSDCNSPDRICRITTVIDRKPRLTDLRVLVVNEEMGFLEHHHHHH", "soluble on expression in E. coli": "soluble"}
{"sequence": "MDAENRVIINVGGIRHETYKATLKKIPATRLSRLTEGMLNYDPVLNEYFFDRHPGVFAQIINYYRSGKLHYPTDVCGPLFEEELEFWGLDSNQVEPCCWMTYTAHRDTQETLAVL", "soluble on expression in E. coli": "soluble"}
{"sequence": "MGSDKIHHHHHHMKQMKIPATYMRGGTSKGVFFALKDLPLNAQQPGPARDALLLRVIGSPDPYGKQTDGMGGATSSTSKTVILDKSQRDDHDVDYLFGQVAIDKPFVDWSGNCGNLTAAVGAFAITQGLVDSAKIPDNGIAVVKIWQANINKTIIAHVPMVDGEVQELGDFELDGVTFPAAEVLVEFVDPADGEGDMFPTGNLVDKLEVPGEPVFDATFINAGIPTIFLKAEQLGYEGTELQEAINGDAAALERFETIRAHGALQMGLIQSLDEAAGRQHTPKIAFVAPAKAYTSSSGKQIAAEEIDLHVRALSMGKLHHAMMGTAAVAIGTAASIPGTLVNQAAGGQARESVRFGHPSGTLKVGAKASEQEGRWQVEKVSMSRSARVLMQGWVCVPESLG", "soluble on expression in E. coli": "not soluble"}
{"sequence": "MSLGKISFPVGVLFSGSGSYAQPARQGFRGAMTAIAHINASRRFPFNLQAHHFDPAGEADRYASLCRQLIRERDVRHVVGCTTSWSRKEAIPVVEKLDALLWYPCVYEGFEVSENLIYVAACANQHLVPLLDYIAPRFGSRAMLVGANYIWGWENNRIARDILHRSGGEVLGERFVSIGDTDIDHLIDEVREKRPDFILNNLIGPSSYAFLRAYQALGEADDRFRPEKCPIISCNLYEGEITGLGHAAAGHFTVSCYFRTLQSPENDSFLKTLAALDPGAIVDAFYAQAFSAVVMIAEAIMRCGSDDADLVRGALRGQSVDTPLGAISVDRWTNHVELPAHIGRARADGSFEIVKREGHHHHHH", "soluble on expression in E. coli": "not soluble"}
{"sequence": "MSLNLNLIFKEQTLKFNKEEQETYLFLQQHNSDWANIFKEMILQGRDKVTQRLVTSMHRENLVKARTQSKKILSRDLIMLDISTTHILEIQFPQAKQTLYAPITGEHAFDRIDVEGPFYIKDDITNTITRVHHPNEILECILIEAPDLKNAASDQFQQDLINSATNMTFAISYQALSMQHDSAPLFNIIENSEDSYLRSEQAVIEGHPLHPGAKLRKGLNALQTFLYSSEFNQPIKLKIVLIHSKLSRTMSLSKDYDTTVHQLFPDLIKQLENEFTPKFNFNDYHIMIVHPWQLDDVLHSDYQAEVDKELIIEAKHTLDYYAGLSFRTLVPKYPAMSPHIKLSTNVHITGEIRTLSEQTTHNGPLMTRILNDILEKDVIFKSYASTIIDEVAGIHFYNEQDEADYQTERSEQLGTLFRKNIYQMIPQEVTPLIPSSLVATYPFNNESPIVTLIKRYQSAASLSDFESSAKSWVETYSKALLGLVIPLVTKYGIALEAHLQNAIATFRKDGLLDTMYIRDFEGLRIDKAQLNEMGYSTSHFHEKSRILTDSKTSVFNKAFYSTVQNHLGELILTISKASNDSNLERHMWYIVRDVLDNIFDQLVLSTHKSNQVNENRINEIKDTMFAPFIDYKCVTTMRLEDEAHHYTYIKVNNPLYRENNEGHHHHHH", "soluble on expression in E. coli": "soluble"}
{"sequence": "MGSDKIHHHHHHSDNAGRTDKQTATVHDSQKDTSSDSKSDNDKKDTKYKSADEITMDDLMSHDETPAEDFELIDNSDEIVIQKYIGKDPIMVIPDEINGKKVVSLGTYALANDKNIVAIKIGNNIKDLGEGVFGNCENLRYVVLGDSVKTIGCNPFLNTNIQEVTLNDGLQKIGEDDINNTVDAPSKNIGMDLKIPESVTEMHLRDFHLIVKAGSYAEQYAKEYAESNNLTYTVE", "soluble on expression in E. coli": "not soluble"}
{"sequence": "MLPQHDFIFFFFAFSILSPSPPPLSSFSSPPPPSFSFFIASTSFFSSQPPSHPRVKKCIDTHTTPSTLTFFSAHHPLASPKIHYEVVLYYSFFFKFRLRLLLVSVAHQLLE", "soluble on expression in E. coli": "not soluble"}
{"sequence": "MGSDKIHHHHHHMVLSGSPYERGFQHGNRFADLISQALDRRLASLSAADLSQAHKRASDVLATIDVMAPHVGTELRGIADGAGREVSGIVLRSSFELLASPTATGCSGLAVQTRDGALIAQNWDGPLGSDVEQALFIHVGTSGFEFATVAAVGALGWVGFNRAGFGFVNNDLVLKSRCDGIPSQIVRRVFLGCPDVNAAVEAAKSLPHMAGRAYLFGDASNKIASIEVSARHGVSVCRSGSFLAHTNHALNDQIRADEDAELLARQYPSSQKRLEVLKMREAGCADACEVMDILRDRTNAPDSVCKQTSLREPTQTAFSVVMQCRNRTLFLVRGMPSATEYQRISL", "soluble on expression in E. coli": "not soluble"}
{"sequence": "MSLKPRACVVVYPGSNCDRDAYHALEINGFEPSYVGLDDKLDDYELIILPGGFSYGDYLRPGAVAAREKIAFEIAKAAERGKLIMGICNGFQILIEMGLLKGALLQNSSGKFICKWVDLIVENNDTPFTNAFEKGEKIRIPIAHGFGRYVKIDDVNVVLRYVKDVNGSDERIAGVLNESGNVFGLMPHPERAVEELIGGEDGKKVFQSILNYLKREGGSHHHHHH", "soluble on expression in E. coli": "soluble"}
